Source: patent US20150362488

Tested on: RecQ helicase (Escherichia coli)
Settings: single-molecule hairpin re-zipping blockage (magnetic tweezers); no ATP; Ftest 10 pN; non-specific binding along template

mechanically opened DNA hairpin (ssDNA template)
K half: 0.226 nM
